In US7429474B2, “2-O sulfatase compositions and methods of analyzing therewith” (Massachusetts Institute of Technology, priority 2003, dated 2008):
Entries after “also recorded” stand apart in the source; their conditions may differ.

Tests used:
2-O sulfatase [1] = experiment: desulfation of 2-O sulfated chondroitin disaccharides under extended and exhaustive conditions; format: biochemical, F. heparinum; settings: 4× higher enzyme concentration, 20 minute period
Description: Substrate specificity and kinetics experiments using different disaccharide substrates—For substrate specificity experiments, the following heparin disaccharide substrates were used: ΔU2SHNAc, ΔU2SHNAc,6S, ΔU2SHNS, and ΔU2SHNS,6S. In addition, the chondroitin disaccharides ΔU2SGalNAc,4S and ΔU2SGalNAc,6S were also studied. Disaccharide concentrations for each respective substrate were varied from 0.1 mM to 4 mM. Initial rates (Vo) were extrapolated from linear activities representing <20% substrate turnover and fit to pseudo first-order kinetics. Standard reactions included 50 mM imidazole, pH 6.5, 50 mM NaCl, 500 μM disaccharide, and 25 nM of enzyme (2-O ΔN^1-24) in a 20 μL reaction volume. […] Desulfation at the 2-OH position of the disaccharide was measured by capillary electrophoresis. […] Activity was measured as moles of desulfated product formed and was calculated from the measured area of the product peak based on molar conversion factors empirically determined from standard curves. […] Each unsaturated disaccharide peak was detected by UV absorption at 232 nm. All the substrate saturation kinetics were measured under Michaelis-Menten conditions.
To determine whether either or both of these 2-O sulfated chondroitin disaccharides could be quantitatively desulfated under exhaustive conditions, we carried out an 18 hour incubation at 30° C. that included 5 mM of substrate and 5 μM enzyme.

2-O sulfatase [2] = experiment: effect of ionic strength, metal ions, EDTA, buffers and cysteine-reactive agents on 2-O sulfatase activity; format: biochemical, F. heparinum; settings: for effect of additive on enzyme activity: EDTA up to 1 mM, CaCl2, MgCl2, MnCl2 up to 10 mM, DTNB, DTT, 50 mM phosphate buffer pH 6.5
Description: For pilot experiments measuring the relative effect of ionic strength on 2-O sulfatase activity, the NaCl concentration was varied from 0.05 to 1 M in 50 mM MES buffer (pH 6.5) that included 500 μM of the disulfated disaccharide ΔU2SHNS,6S and 50 nM enzyme. The effect of pH on sulfatase activity was assessed as a function of catalytic efficiency by measuring kinetic parameters in the following two overlapping pH buffer systems ranging from 5.0 to 8.0: 50 mM MES at pH 5.0, 5.5, 6.5, and 7.0; 50 mM MOPS at pH 6.5, 7.0, 7.5 and 8.0. Assays included 25 nM enzyme, 50 mM NaCl and varying concentrations of the disulfated disaccharide substrate ΔU2SHNS. Km and kcat values were extrapolated from Vo vs. [S] curves fit to the Michaelis-Menten equation by a non-linear least squares regression and the relative kcat/Km ratios plotted as a function of buffer pH. […] Relative activities were measured at a single saturating substrate concentration (4 mM) using ΔU2SHNS.
We also examined 2-O sulfatase activity relative to ionic composition.

[3] = biological target: T1, 2-O sulfatase (2-O ΔN^1-24) (Pedobacter heparinus, UniProt C6Y1N2); experiment: 2-O sulfatase assay and disaccharide substrate kinetics by capillary electrophoresis; format: biochemical, F. heparinum
Description: (§1) 2-O sulfatase assay and determination of biochemical reaction conditions—2-O sulfatase activity was measured using the unsaturated heparin trisulfated disaccharide ΔU2SHNS,6S or the disulfated disaccharide ΔU2SHNS as well as the disulfated disaccharide ΔUHNS,6S lacking a sulfate at the 2-OH position. Standard reactions included 50 mM imidazole, pH 6.5, 50 mM NaCl, 500 μM disaccharide, and 25 nM of enzyme (2-O ΔN^1-24) in a 20 μL reaction volume. The reaction was carried out for 30 seconds at 30° C. Prior to its addition, the enzyme was serially diluted to 250 nM in ice cold 1X imidazole buffer. The assay was initiated by the addition of 2 μL of this 10 X enzyme stock to 18 μL of reaction mixture. The enzyme was inactivated by heating at 95° C. 11 for five minutes in pre-heated 0.5 mL eppendorf tubes. Desulfation at the 2-OH position of the disaccharide was measured by capillary electrophoresis. Resolution of substrate and product were achieved under standard conditions described for HSGAG compositional analyses (Rhomberg, A. J., Ernst, S., Sasisekharan, R., and Biemann, K. (1998) Proc Natl Acad Sci USA 95(8), 4176-81). […] For the detection of mono- and di-sulfated disaccharide products, total electrophoresis time was 20 minutes. Each unsaturated disaccharide peak was detected by UV absorption at 232 nm.
(§2) Substrate specificity and kinetics experiments using different disaccharide substrates—For substrate specificity experiments, the following heparin disaccharide substrates were used: ΔU2SHNAc, ΔU2SHNAc,6S, ΔU2SHNS, and ΔU2SHNS,6S. In addition, the chondroitin disaccharides ΔU2SGalNAc,4S and ΔU2SGalNAc,6S were also studied. Disaccharide concentrations for each respective substrate were varied from 0.1 mM to 4 mM. Initial rates (Vo) were extrapolated from linear activities representing <20% substrate turnover and fit to pseudo first-order kinetics. Standard reactions included 50 mM imidazole, pH 6.5, 50 mM NaCl, 500 μM disaccharide, and 25 nM of enzyme (2-O ΔN^1-24) in a 20 μL reaction volume. The reaction was carried out for 30 seconds at 30° C.

[4] = biological target: T1, 2-O sulfatase (2-O ΔN^1-24); experiment: exolytic desulfation of oligosaccharides by 2-O sulfatase (CE compositional analysis and MALDI-MS); format: biochemical, F. heparinum
Description: Heparin compositional analyses by capillary electrophoresis and MALDI-MS—Approximately 10 μg of the AT-10 oligosaccharide were incubated with 100 picomoles of 2-O ΔN^1-24 in a 40 μL reaction volume at 30° C. 15 μL aliquots were removed at 4 hours and 17 hours and heat inactivated at 95° C. The oligosaccharide reaction products (along with 15 μL of a minus sulfatase control) were subjected to an exhaustive heparinase I and III digestion prior to CE-based compositional analysis. Desulfation of the decasaccharide was assayed in parallel by MALDI-MS using established methods (Rhomberg, A. J., Ernst, S., Sasisekharan, R., and Biemann, K. (1998) Proc Natl Acad Sci USA 95(8), 4176-81.).
Exolytic Action of the 2-O sulfatase—We addressed this important question using as a substrate the purified heparin-derived AT-10 decasaccharide ΔU2SHNS,6SI2SHNS,6SI2SHNS,6SIHNAc,6SGHNS,3S,6S. […] The substrate was first exhaustively treated with the 2-O sulfatase. The 2-O desulfated decasaccharide was then subjected to an exhaustive heparinase treatment.

[5] = −85° C., 10% glycerol
[6] = biochemical reaction conditions (pH, ionic strength, temperature) for recombinant 2-O sulfatase; settings: for activity at outlying pH values of 5 and 8: pH 5.0 and 8.0
Description: FIG. 6 provides the in vitro biochemical reaction conditions for the recombinant 2-O sulfatase. Panel (A) illustrates the effect of pH. Sulfatase catalytic efficiency (kcat/Km) was measured as a function of varying pH from 5 to 8 using two overlapping buffers: 50 mM MES (solid circles) and 50 mM MOPS (open circles). Inset: Relative effect of three different assay buffers (each at pH 6.5) on optimal enzyme activity. 1.50 mM MES; 2.50 mM imidazole; 3.50 mM sodium phosphate. Panel (B) illustrates the effect of ionic strength. Shown here is % activity normalized to 50 mM NaCl. Panel (C) illustrates the effect of reaction temperature. Data is normalized to 30° C. activity (100%). The unsaturated disaccharide ΔU2SHNS was used in all three experiments.
For pilot experiments measuring the relative effect of ionic strength on 2-O sulfatase activity, the NaCl concentration was varied from 0.05 to 1 M in 50 mM MES buffer (pH 6.5) that included 500 μM of the disulfated disaccharide ΔU2SHNS,6S and 50 nM enzyme. The effect of pH on sulfatase activity was assessed as a function of catalytic efficiency by measuring kinetic parameters in the following two overlapping pH buffer systems ranging from 5.0 to 8.0: 50 mM MES at pH 5.0, 5.5, 6.5, and 7.0; 50 mM MOPS at pH 6.5, 7.0, 7.5 and 8.0. Assays included 25 nM enzyme, 50 mM NaCl and varying concentrations of the disulfated disaccharide substrate ΔU2SHNS. Km and kcat values were extrapolated from Vo vs. [S] curves fit to the Michaelis-Menten equation by a non-linear least squares regression and the relative kcat/Km ratios plotted as a function of buffer pH. Based on this profile, relative enzyme activity was also measured in four different buffers (MES, imidazole, ADA, and sodium phosphate) each present as a 50 mM concentration at pH 6.5. Relative activities were measured at a single saturating substrate concentration (4 mM) using ΔU2SHNS.
These parameters included pH, temperature, ionic strength, and possible divalent metal ion dependency.
37° C. was the default temperature at which all of the preliminary biochemical experiments were conducted. We measured both relative enzyme activity and stability as a function of varying reaction temperature (FIG. 6, Paenl (C)). The 2-O sulfatase was active over a fairly broad temperature range (25° C. to 37° C.), with optimal activity occurring at 30° C. Enzyme activity was compromised at 42° C. Enzyme stability at this temperature was likewise affected as assessed in pre-incubation experiments conducted at varying temperatures (30° C.→42° C.) prior to measuring 2-O sulfatase activity at 30° C.

[7] = substrate: O=C(O)C1=C[C@H](O)[C@@H](OS(=O)(=O)O)[C@H](O[C@H]2[C@H](O)[C@@H](NS(=O)(=O)O)C(O)O[C@@H]2CO)O1; experiment: 2-O sulfatase assay and disaccharide substrate kinetics by capillary electrophoresis; format: biochemical, F. heparinum; settings: other: 25 nM 2-O ΔN^1-24, 50 mM imidazole pH 6.5, 50 mM NaCl, 30° C., chondroitin disaccharide approximated from double reciprocal plots
Description: as §1, §2

[8] = substrate: CC(=O)N[C@H]1C(O)O[C@H](CO)[C@@H](O[C@@H]2OC(C(=O)O)=C[C@H](O)[C@H]2OS(=O)(=O)O)[C@@H]1O; experiment: as above; format: biochemical, F. heparinum; settings: other: 25 nM 2-O ΔN^1-24, 50 mM imidazole pH 6.5, 50 mM NaCl, 30° C., chondroitin disaccharide approximated from double reciprocal plots
Description: as §1, §2

[9] = substrate: O=C(O)C1=C[C@H](O)[C@@H](OS(=O)(=O)O)[C@H](O[C@H]2[C@H](O)[C@@H](NS(=O)(=O)O)C(O)O[C@@H]2COS(=O)(=O)O)O1; experiment: as above; format: biochemical, F. heparinum; settings: other: 25 nM 2-O ΔN^1-24, 50 mM imidazole pH 6.5, 50 mM NaCl, 30° C., chondroitin disaccharide approximated from double reciprocal plots
Description: as §1, §2

[10] = substrate: CC(=O)N[C@H]1C(O)O[C@H](COS(=O)(=O)O)[C@@H](O[C@@H]2OC(C(=O)O)=C[C@H](O)[C@H]2OS(=O)(=O)O)[C@@H]1O; experiment: as above; format: biochemical, F. heparinum; settings: other: 25 nM 2-O ΔN^1-24, 50 mM imidazole pH 6.5, 50 mM NaCl, 30° C., chondroitin disaccharide approximated from double reciprocal plots
Description: as §1, §2

Molecule: CC(=O)N[C@H]1C(O)O[C@H](CO)[C@H](OS(=O)(=O)O)[C@@H]1O[C@@H]1OC(C(=O)O)=C[C@H](O)[C@H]1OS(=O)(=O)O (some centres unmarked) [ΔU2SGalNAc,4S]
- substrate desulfated (2-O sulfatase [1]): less than 10%

Molecule: O[C@@H](CS)[C@@H](O)CS [DTT]
- effect of additive on enzyme activity (2-O sulfatase [2]): not inhibited

Molecule: O=C(O)CN(CCN(CC(=O)O)CC(=O)O)CC(=O)O [EDTA]
- effect of additive on enzyme activity (2-O sulfatase [2]): largely unaffected
- inhibition of activity (2-O sulfatase [2]; preincubation of enzyme with 5 mM EDTA, trisulfated disaccharide substrate): approximately 10%

Molecule: O=C(O)C1=C[C@H](O)[C@@H](OS(=O)(=O)O)[C@H](O[C@H]2[C@H](O)[C@@H](NS(=O)(=O)O)C(O)O[C@@H]2COS(=O)(=O)O)O1 (some centres unmarked) [ΔU2SHNS,6S]
- position specificity of desulfation by the recombinant sulfatase ([3]; ΔU2SHNS,6S versus ΔUHNS,6S, CE): only hydrolyzed a single sulfate, namely, the one found at the 2-OH position

Molecule: CC(=O)N[C@H]1C(O)O[C@H](COS(=O)(=O)O)[C@H](O)[C@@H]1O[C@@H]1OC(C(=O)O)=C[C@H](O)[C@H]1OS(=O)(=O)O (some centres unmarked) [ΔU2SGalNac.6S]
- substrate desulfated (2-O sulfatase [1]): approximately 40%
- Km ([3]; 25 nM 2-O ΔN^1-24, 50 mM imidazole pH 6.5, 50 mM NaCl, 30° C., chondroitin disaccharide approximated from double reciprocal plots): > 10000 µM
- kcat ([3]; 25 nM 2-O ΔN^1-24, 50 mM imidazole pH 6.5, 50 mM NaCl, 30° C., substrate 0.1-4 mM, chondroitin disaccharide approximated from double reciprocal plots): <100 s⁻¹
- hydrolysis under the standard kinetic conditions ([3]; same kinetic conditions as heparin disaccharides): albeit neglibly, hydrolyzed; also recorded: only neglibly hydrolyzed

Molecule: [Ca+2].[Cl-].[Cl-] [CaCl2]
- effect of additive on enzyme activity (2-O sulfatase [2]): no substantive effect

Molecule: [Cl-].[Cl-].[Mg+2] [MgCl2]
- effect of additive on enzyme activity (2-O sulfatase [2]): no substantive effect

Molecule: [Cl][Mn][Cl] [MnCl2]
- effect of additive on enzyme activity (2-O sulfatase [2]): no substantive effect

Molecule: O=C(O)c1cc(SSc2ccc([N+](=O)[O-])c(C(=O)O)c2)ccc1[N+](=O)[O-] [DTNB]
- effect of additive on enzyme activity (2-O sulfatase [2]): not inhibited

Molecule: CC(=O)NC1C(OC2C(C(=O)O)OC(OC3C(COS(=O)(=O)O)OC(O)C(NS(=O)(=O)O)C3OS(=O)(=O)O)C(O)C2O)OC(COS(=O)(=O)O)C(OC2OC(C(=O)O)C(OC3OC(COS(=O)(=O)O)C(OC4OC(C(=O)O)C(OC5OC(COS(=O)(=O)O)C(OC6OC(C(=O)O)C(OC7OC(COS(=O)(=O)O)C(OC8OC(C(=O)O)=CC(O)C8OS(=O)(=O)O)C(O)C7NS(=O)(=O)O)C(O)C6OS(=O)(=O)O)C(O)C5NS(=O)(=O)O)C(O)C4OS(=O)(=O)O)C(O)C3NS(=O)(=O)O)C(O)C2O)C1O [AT-10, ΔU2SHNS,6SI2SHNS,6SI2SHNS,6SIHNAc,6SGHNS,3S,6S]
- disappearance of disaccharide ΔU2SHNS,6S in compositional analysis ([4]; 2-O sulfatase then exhaustive heparinase treatment, CE): by only one-third
- sulfates lost after exhaustive 2-O sulfatase treatment (mass spectrometry) ([4]; MALDI-MS): Loss of a single sulfate

B1: 2-O sulfatase: recombinant F. heparinum 2-O sulfatase expressed in E. coli; experiments used the truncated enzyme with the histidine tag cleaved (protein, listed as Flavobacterium heparinum)
chain: MKMYKSKGWLIAMLILAGFGDAGAQTSKVAASRPNIIIIMTDQQTADAMSNAGNKDLHTPAMDVLAANGTRFTRAYCAQPLCTPSRSAIFSGKMPHETGFTGNTPEKDGQWPDSVLMMGKIFKAGGYKTGYVGKWHLPVPVTKVAQHGFETIENTGMGDYTDAVTPSQCANFNKKNKDNPFLLVASFLNPHDICEWARGDNLKMDVLDAAPDTAFCPKLPANWPIPAFEPAIVREQQKVNPRTYPSVGWNESQWRKYRWAYNRLVEKVDNYMAMVLGSLKKYGIEDNTIIIFTSDHGDGYAAHEWNQKQILYEEAARIPFIISKIGQWKARTDDQLVCNGIDIIPTICGFAGIAKPVGLKGLDLSKRIANPSVKLRDTLVIETDFADNELLLGIKGRAVITKDFKYIVYDKGEIREQLFDLEKDAGEMDNLAVKPAYKKKLNEMRAYLKLWCKQHQDSFYALKK
- activity after long-term storage, freezing and thawing [5]: without any subsequent loss of activity
- pH activity range ([6]; 50 mM MES / MOPS, pH 5 to 8): 6.0-7.0
- pH optimum of activity (catalytic efficiency) ([6]; 50 mM MES / MOPS, pH 5 to 8): 6.5
- enzyme activity at 42° C. ([6]; 42° C.): compromised
- NaCl concentration of optimal activity ([6]; NaCl titration): approximately 50 mM
- activity at outlying pH values of 5 and 8 [6]: essentially no activity
- activity at outlying pH values of 5 and 8 ([6]; listed as flavobacterial sulfatase): essentially inactive
- temperature of optimal activity ([6]; varying reaction temperature): 30 °C

B2: 2-O sulfatase (2-O ΔN^1-24) (Pedobacter heparinus DSM 2366) (protein)
chain: QTSKVAASRPNIIIIMTDQQTADAMSNAGNKDLHTPAMDVLAANGTRFTRAYCAQPLCTPSRSAIFSGKMPHETGFTGNTPEKDGQWPDSVLMMGKIFKAGGYKTGYVGKWHLPVPVTKVAQHGFETIENTGMGDYTDAVTPSQCANFIKKNKDNPFLLVASFLNPHDICEWARGDNLKMDVLDAAPDTAFCPKLPANWPIPAFEPAIVREQQKVNPRTYPSVGWNESQWRKYRWAYNRLVEKVDNYMAMVLGSLKKYGIEDNTIIIFTSDHGDGYAAHEWNQKQILYEEAARIPFIISKIGQWKARTDDQLVCNGIDIIPTICGFAGIAKPVGLKGLDLSKRIANPSVKLRDTLVIETDFADNELLLGIKGRAVITKDFKYIVYDKGEIREQLFDLEKDAGEMDNLAVKPAYKKKLNEMRAYLKLWCKQHQDSFYALKK
- Km [7]: 1060 µM
- kcat [7]: 911 s⁻¹
- kcat/Km [7]: 859000 M⁻¹ s⁻¹
- Km [8]: 4660 µM
- kcat [8]: 673 s⁻¹
- kcat/Km [8]: 144000 M⁻¹ s⁻¹
- Km [9]: 87 µM
- kcat [9]: 814 s⁻¹
- kcat/Km [9]: 9.36e+06 M⁻¹ s⁻¹
- Km [10]: 515 µM
- kcat [10]: 1670 s⁻¹
- kcat/Km [10]: 3.25e+06 M⁻¹ s⁻¹
